{
  "source": "paper PMC7350415",
  "key": {"[1]": {"molecular_target": "ovine CD27 (OaCD27), full length, C-terminally V5 tagged, on transfected HEK293 cells (Ovis aries)", "test": "immunostaining of cells or tissue; HEK293 cells transfected with the V5-tagged receptor incubated with 10 μg of purified ligand for 15 min at 4 °C, then fixed; ligand detected with anti-ovine Fc antibody, receptor with anti-V5; confocal microscopy, pixel colocalisation in 25-40 cells"}, "[2]": {"molecular_target": "ovine OX40 (OaOX40), full length, C-terminally V5 tagged, on transfected HEK293 cells (Ovis aries)", "test": "immunostaining of cells or tissue; HEK293 cells transfected with the V5-tagged receptor incubated with 10 μg of purified ligand for 15 min at 4 °C, then fixed; ligand detected with anti-ovine Fc antibody, receptor with anti-V5; confocal microscopy, pixel colocalisation in 25-40 cells"}, "[3]": {"molecular_target": "ovine OX40 (OaOX40), full length, C-terminally V5 tagged, on transfected HEK293 cells (Ovis aries)", "test": "immunostaining of cells or tissue; HEK293 cells transfected with the V5-tagged receptor incubated with conditioned media from adenovirus-infected cells for 15 min, then fixed; ligand detected with anti-Fc antibody, receptor with anti-V5; confocal microscopy, pixel colocalisation in 25-40 cells"}, "[4]": {"molecular_target": "ovine CD27 (OaCD27), full length, C-terminally V5 tagged, on transfected HEK293 cells (Ovis aries)", "test": "immunostaining of cells or tissue; HEK293 cells transfected with the V5-tagged receptor incubated with conditioned media from adenovirus-infected cells for 15 min, then fixed; ligand detected with anti-Fc antibody, receptor with anti-V5; confocal microscopy, pixel colocalisation in 25-40 cells"}},
  "data": [
    {"substance": "purified recombinant ovine CD70 (rOaCD70), baculovirus-expressed: ovine IgG1 Fc - isoleucine zipper - predicted extracellular domain of ovine CD70 (Fc fusion)", "values": [
      {"measurement": "percentage of ligand sharing pixel localisation with its receptor", "setting": "[1]", "result": 72.8, "unit": "%"}
    ]},
    {"substance": "purified recombinant ovine OX40L (rOaOX40L), baculovirus-expressed: ovine IgG1 Fc - isoleucine zipper - predicted extracellular domain of ovine OX40L (Fc fusion)", "values": [
      {"measurement": "percentage of ligand sharing pixel localisation with its receptor", "setting": "[2]", "result": 59.3, "unit": "%"}
    ]},
    {"substance": "secreted rOaOX40L expressed from recombinant adenovirus Ad5-OaOX40L (same construct as the baculovirus protein) (Fc fusion)", "values": [
      {"measurement": "percentage of ligand signal colocalising with its receptor", "setting": "[3]", "result": 60.4, "unit": "%"}
    ]},
    {"substance": "secreted rOaCD70 expressed from recombinant adenovirus Ad5-OaCD70 (same construct as the baculovirus protein) (Fc fusion)", "values": [
      {"measurement": "percentage of ligand signal colocalising with its receptor", "setting": "[4]", "result": 73.5, "unit": "%"}
    ]}
  ]
}
